The text below walks through data of patent publication US20240228568A1 (CENTRO DE INGENIER A GEN TICA Y BIOTECNOLOG A, published 2024).

For experiment [1], the target named is T1, IL-15 receptor subunit on CTLL-2 cells.
T1 sequence (Q60819 whole entry, species assumed, looked up): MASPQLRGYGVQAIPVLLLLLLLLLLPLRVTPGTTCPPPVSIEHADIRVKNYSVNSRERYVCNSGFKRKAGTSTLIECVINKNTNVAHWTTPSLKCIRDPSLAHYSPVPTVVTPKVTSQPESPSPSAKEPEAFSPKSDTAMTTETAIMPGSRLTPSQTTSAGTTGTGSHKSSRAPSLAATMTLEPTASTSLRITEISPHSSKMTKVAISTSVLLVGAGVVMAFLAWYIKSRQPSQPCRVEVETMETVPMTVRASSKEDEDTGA
The experiment in a line: cell-based or functional assay.

Experiment [2] has the same target. Description: cell-based or functional assay. This is another data set of the same source.

Where no end group is shown, it is not given here. [ ]: non-standard residue; d: D form.

B1: Peptide 1 (peptide)
peptide: KVTAMKCFLL
modifications: not fully specified (C-terminus)
For B1, the “IC50 in the CTLL-2 cell proliferation assay” value (from here on “IC50”) in experiment [1] was 130 µM.

B2: Peptide 5 (peptide)
peptide: KVT[dA]MKCFLL-NH2
For the molecule B2, in experiment [1], the “IC50” value was 28 µM.

B3: Peptide 12 (peptide)
peptide: KVT[dA]MKCFLL-NH2
modifications: also: disulfide-linked homodimer through the Cys
As to B3, in experiment [2], the “antagonist effect on IL-15-induced proliferation, fold against Peptide 1” value came out at 16 times and the “antagonist effect on IL-15-induced proliferation, fold against Peptide 5” value was 3 times. Further, in experiment [1], the “IC50” value came out at 8 µM.
